Test results published in patent publication US20210315992A1, “ADJUVANT EFFECT OF THE TLR1/2 AGONIST DIPROVOCIM SYNERGIZES WITH CHECKPOINT-INHIBITING ANTIBODIES TO ELIMINATE DISEASE” (The Board of Regents of the University of Texas System, priority 2018, published 2021).

Tests used:
[1] = test system: OVA peptide-pulsed target cells; assay: In vivo CTL killing assay; parameters: species or system mouse; details: i.m. immunization, 100 μg OVA, Diprovocim 10 mg/kg; target cells i.v. day 7, read two days later
[2] = test system: B16-OVA melanoma; assay: B16-OVA melanoma, post-tumor treatment (immunization day 3 after tumor inoculation); format: in vivo, mouse; details: immunization three days after tumor inoculation, plus anti-PD-L1
Experimental: C57BL/6J mice (n=8 mice per treatment) were injected s.c. with 2×10^5 B16-OVA melanoma cells on day 0. For pre-tumor treatment, mice were immunized i.m. with OVA (100 μg) mixed with vehicle or Diprovocim (10 mg/kg) or alum (2 mg/kg) on the same day prior to tumor injection. Mice received a booster immunization seven days later in which anti-PD-L1 (200 μg) was administered on days 3, 6 and 9 after tumor inoculation by i.p. injection. For post-tumor treatment, initial immunization was on day 3 after tumor inoculation, with a booster seven days later. Anti-PD-L1 (200 μg) was administered on days 3, 6, 9, 12, and 15 after tumor inoculation by i.p. injection. […] P values for tumor volume analysis apply to the final time point as indicated in graphs and were calculated by Student's t test. P values for survival analysis were calculated by Kaplan-Meier analysis. All results are representative of two independent studies.
For post-treatment, 10 mg/kg Diprovocim-1 or 2 mg/kg Alum with OVA (100 μg) was injected i.m. into mice on day 3 after tumor inoculation. Mice received a booster shot seven days after the first immunization. On day 3, 6, 9, 12 and 15 after tumor inoculation, mice were also injected i.p. with 200 μg anti-mPD-L1 in 100 μl saline.
Tumors were measured with a digital caliper (Fisher) and the tumor sizes were calculated using the following formula: volume=0.5×length×width^2. […]

[3] = test system: B16-OVA melanoma; assay: B16-OVA melanoma, pre-tumor treatment (immunization on day of tumor inoculation); format: in vivo, mouse
Experimental: FIG. 4A through FIG. 4J illustrate inhibition of B16-OVA tumor growth by pre- or post-tumor treatment with Diprovocim-adjuvanted tumor vaccination and checkpoint blockade. FIG. 4A provides a schematic of pre- and post-tumor treatment protocols. C57BL/6J mice (n=8 mice per treatment) were injected s.c. with 2×10^5 B16-OVA melanoma cells on day 0. For pre-tumor treatment, mice were immunized i.m. with OVA (100 μg) mixed with vehicle or Diprovocim (10 mg/kg) or alum (2 mg/kg) on the same day prior to tumor injection. Mice received a booster immunization seven days later in which anti-PD-L1 (200 μg) was administered on days 3, 6 and 9 after tumor inoculation by i.p. injection. For post-tumor treatment, initial immunization was on day 3 after tumor inoculation, with a booster seven days later. Anti-PD-L1 (200 μg) was administered on days 3, 6, 9, 12, and 15 after tumor inoculation by i.p. injection. FIG. 4B through FIG. 4F illustrate pre-tumor treatment results. Tumor volume (FIG. 4B and FIG. 4D) and percent mouse survival (survivors/total mice) (FIG. 4C and FIG. 4E). […] FIG. 4G through FIG. 4J illustrate a comparison of pre-tumor (FIG. 4G and FIG. 4H) vs. post-tumor treatment (FIG. 4I and FIG. 4J). Tumor volume (FIG. 4G and FIG. 4I) and percent mouse survival (survivors/total mice) (FIG. 4H and FIG. 4J) are shown. P values for tumor volume analysis apply to the final time point as indicated in graphs and were calculated by Student's t test. P values for survival analysis were calculated by Kaplan-Meier analysis. All results are representative of two independent studies.
C57BL/6J mice (n=8) were injected s.c. with 2×10^5 B16-OVA melanoma cells on day 0. Anti-PD-L1 (200 μg) or mouse IgG2a isotype control antibody was administered on days 3, 6 and 9 after tumor inoculation by i.p. injection. FIG. 8A is a graph of tumor volume versus time and FIG. 8B is a graph showing percent mouse survival (survivors/total mice) versus time. The control values in both plots are shown above those for the anti-PD-L1 values where the two values diverge. […] Results are representative of two independent studies.
B16-OVA cells (B16F10 melanoma cells stably expressing chicken ovalbumin) were grown in DMEM containing 10% vol/vol FBS. A total of 2×10^5 B16-OVA cells in 100 μL PBS were injected s.c. into the right flank of 8-12 week old male C57BL/6J mice to establish tumors (n=8 mice per group). For pretreatment, 10 mg/kg Diprovocim-1 or 2 mg/kg alum with or without OVA (100 μg) was injected i.m. into mice on the same day as tumor inoculation (day 0). Mice received a booster shot seven days after the first immunization. On day 3, 6 and 9, some groups were injected i.p. with 200 μg checkpoint inhibitor (anti-mPD-L1, BioXcell) in 100 μl saline.
Tumors were measured with a digital caliper (Fisher) and the tumor sizes were calculated using the following formula: volume=0.5×length×width^2. Mice were sacrificed when the tumor length or width reached 2 cm.

[4] = test system: OT-I CD8 T cells; assay: Cross-priming of CD8 T cells (CD69 on OT-I CD8 T cells co-cultured with DCs of immunized mice); format: in vivo, mouse; details: DCs 24 hours after i.m. immunization, 24 hours co-culture
Experimental: C57BL/6J male mice were injected i.m. with 100 μg OVA mixed with vehicle or with 10 mg/kg Diprovocim (n=4 mice per treatment). 24 hours later, DCs from draining lymph nodes and spleen were purified by Mouse Pan Dendritic Cell Isolation Kit (Miltenyi Biotech). CD8 T cells from OT-I transgenic mice were purified by Mouse CD8+ T Cell Isolation Kit (Miltenyi Biotech). 3×10^5 DCs were co-cultured with 3×10^5 OT-I CD8 T cells in RPMI medium containing 10% vol/vol FBS and 1% vol/vol penicillin and streptomycin for 24 hours. Then, cells were collected and stained with anti-mouse CD3-FITC, anti-mouse CD8-BV510, and anti-mouse CD69-PE-CF594 (BioLegend) for 45 minutes. Then, the cells were washed twice with PBS. Stained cells were analyzed with an LSRII instrument and the flow cytometry data were analyzed using FlowJo software.

[5] = immunization on day of tumor inoculation, plus anti-PD-L1

B1: OVA: EndoFit ovalbumin, Invivogen; immunogen, given mixed with vehicle when without adjuvant (protein, UniProt P01012 2-386, looked up)
Ovalbumin: GSIGAASMEFCFDVFKELKVHHANENIFYCPIAIMSALAMVYLGAKDSTRTQINKVVRFDKLPGFGDSIEAQCGTSVNVHSSLRDILNQITKPNDVYSFSLASRLYAEERYPILPEYLQCVKELYRGGLEPINFQTAADQARELINSWVESQTNGIIRNVLQPSSVDSQTAMVLVNAIVFKGLWEKAFKDEDTQAMPFRVTEQESKPVQMMYQIGLFRVASMASEKMKILELPFASGTMSMLVLLPDEVSGLEQLESIINFEKLTEWTSSNVMEERKIKVYLPRMKMEEKYNLTSVLMAMGITDVFSSSANLSGISSAESLKISQAVHAAHAEINEAGREVVGSAEAGVDAASVSEEFRADHPFLFCIKHIATNAVLFFGRCVSP
Q: Which results are given for B1?
A: target cells eliminated [1]: about 10%; average survival time [2]: 22 days; average survival time [3, 5]: 24 days; mice died by 38 days after tumor inoculation [3, 5]: 100%; tumor growth rates and survival times compared with vehicle alone ([3]; single agent, no anti-PD-L1, i.m. day 0 and booster day 7): similar; activation (CD69 upregulation) of OT-I CD8 T cells by DCs of immunized mice [4]: failed to induce CD69 expression
